In the nanobody polyreactivity screen of Harvey et al. (2022):

Experiment: yeast display, Sf9 membrane polyspecificity reagent, FACS + sequencing; frameworks hold sequencing errors
Method in brief: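 After 36–48 hours of galactose induction, yeast (Saccharomyces cerevisiae BJ5465) displaying a synthetic nanobody library were stained at 4 °C for 1 hour with 10% biotinylated, detergent-solubilized Sf9 membrane reagent. Streptavidin microbeads enriched the stained cells before FACS sorting into low and high (top ~1%) gates on anti-HA and streptavidin fluorescence. Each clone's polyreactivity label reflects its gate of origin.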

**Q.** Which “polyreactivity (PSR sort gate)” value does the source give for “QVQLVESGGGLVQAGGSLRLSCAASGFIFSSYAMGWYRQAPGKERELVASTSRRAGRTYYADSVKGRFTISRDNAKNTVYVQMNSLKPEDSAVYYCAAEARVGYHFQILDYWGQGTQVTVSS” here?
**A.** high polyreactivity

**Q.** For “QVQLVESGGGLVQAGGSLRLSCAASGFIFSTYAMGWYRQAPGKERELVAAITRGGRTYYADSVKGRFTISRDNAKNTVYLQMNSLIPEDTAVYYCAVFVHGDYWGQGTQVTVSS”, which “polyreactivity (PSR sort gate)” value is on record?
**A.** high polyreactivity

**Q.** Which “polyreactivity (PSR sort gate)” value does the source give for “QVQLVESGGGLVQAGGSLRLSCAASGFIFSWYAMGWYRQAPGKERELVAAINWSGDSTYYADSVKGRFTISRDNAKNTVYLQMNSLKPEDTAVYYCAADPSYWGDPYDYWGQGTQVTVSS” here?
**A.** high polyreactivity

**Q.** Which “polyreactivity (PSR sort gate)” value does the source give for “QVQLVESGGGLVQAGGSLRLSCAASGFIFSWYAMGWYRQAPGKERELVAAITSGGRTNYADSVKGRFTISRDNAKNTVYLQMNSLKPEDTAVYYCAAAFYPFWPRYTSDYWGQGTQVTVSS” here?
**A.** high polyreactivity

**Q.** For “QVQLVESGGGLVQAGGSLRLSCAASGFIFSYNAMGWYRQAPGKERVLVAAISSRGGSTYYADSVMGRFTISRDNAKNTVYLQMNSLKPEDTGVSYCAVASRRVYTAPYDYWGQGTQVTVSS”, which “polyreactivity (PSR sort gate)” value is on record?
**A.** high polyreactivity

**Q.** With “QVQLVESGGGLVQAGGSLRLSCAASGFIFSYNAMGWYRTAPGTERELDAAISSSGGTTYYADSVKGRFTISRYNAKNTVYLQMNSLKPEDTAVYYCAADGRTYHHLDGGWYRYDYWGQGTQVTVSS” as the sequence, how does the “polyreactivity (PSR sort gate)” value read?
**A.** low polyreactivity

**Q.** With “QVQLVESGGGLVQAGGSLRLSCAASGFIFSYYAMGWYRQAPGKERELLAAISRNGGRTYYADSVKGRFTISRDNAKNTVYLQMNSLKPEDTAVYYCAATTYRTSSYIRYGSPKHDDYWGQGTQVTVSS” as the sequence, how does the “polyreactivity (PSR sort gate)” value read?
**A.** high polyreactivity

**Q.** Which “polyreactivity (PSR sort gate)” value does the source give for “QVQLVESGGGLVQAGGSLRLSCAASGFIFSYYAMGWYRQAPGKERELVAAITSGGSTNYADSVKGRFTISRDNAKNTVYLQMNSLKPEDTAVFYCATAGSGGIGLFYSYDYWGQGTQVTVSS” here?
**A.** low polyreactivity

**Q.** With “QVQLVESGGGLVQAGGSLRLSCAASGFIFSYYAMGWYRQAPGKERELVATITRSGGRTYYADSVKGRFTISRDNAKNTVYLQMNSLKPEDTAVYYCAADYYYKDDSWGQGTQVTVSS” as the sequence, how does the “polyreactivity (PSR sort gate)” value read?
**A.** high polyreactivity

**Q.** With “QVQLVESGGGLVQAGGSLRLSCAASGFIFSYYVMGWYRQAPGKERELVAGISKRGGSTRYADSVKGRFTISRDNAKNTVYLQMNSLKPEDTAVYYCNRLPYLHFAGRLTNYDYWGQGTQVTVSS” as the sequence, how does the “polyreactivity (PSR sort gate)” value read?
**A.** high polyreactivity

**Q.** Which “polyreactivity (PSR sort gate)” value does the source give for “QVQLVESGGGLVQAGGSLRLSCAASGFIFTDYAMGWYRQAPGKERELVAAISSGGRTYYADSVKGRFTISRDNAKNTVYLQMNSLKPEDTAVYYCARGGRAEGWGQGTQVTVSS” here?
**A.** high polyreactivity

**Q.** Which “polyreactivity (PSR sort gate)” value does the source give for “QVQLVESGGGLVQAGGSLRLSCAASGFIFTGNVMGWYRQAPGKEREFVAAISRSGGNTYYADSVKGRFTISRDKAKNTVYLQMNSLKPEDTAVYYCAVPKHFVVSYDYWGQGTQVTVSS” here?
**A.** high polyreactivity

**Q.** For “QVQLVESGGGLVQAGGSLRLSCAASGFIFTKYVMGWYRQAPGKERELVAAISSGGGRTYYADSVKGRFTISRDNGKYTVYLQMNSQKPEDTAVYYCNIDDERGKLYYWGQGTQVTVSS”, which “polyreactivity (PSR sort gate)” value is on record?
**A.** high polyreactivity

**Q.** For “QVQLVESGGGLVQAGGSLRLSCAASGFIFTLYAMGWYRQAPGKEREFVAAISWSDGSTTYADSVKGRFTISRDNAKNSVYSQMYSLKPEDTAVYYCADVTCSYIRGLVYHFYYWGQGTQVTVSS”, which “polyreactivity (PSR sort gate)” value is on record?
**A.** low polyreactivity

**Q.** With “QVQLVESGGGLVQAGGSLRLSCAASGFIFTLYAMGWYRQAPGKERELVADISFNSGNTYYADSVKGRFTISRDNAKNTVYLQMNSLIPEDTAVYYCAVDLYFVGDVYEGYLGGDYLGQGTQVTVSS” as the sequence, how does the “polyreactivity (PSR sort gate)” value read?
**A.** low polyreactivity

**Q.** Which “polyreactivity (PSR sort gate)” value does the source give for “QVQLVESGGGLVQAGGSLRLSCAASGFIFTPYTKGWYRQATGKERELVAAITDGSSTYYADSVKGRFTISRDNAKNTVYLQMNSLKPEDTAVYYCNADTLTTTRRFNPYDYWGQGTQVTVSS” here?
**A.** low polyreactivity

**Q.** With “QVQLVESGGGLVQAGGSLRLSCAASGFIFTQNAMGWYRQAPGKERELVARISRRGGSTYYADSVKGRFTISRDNAKNTVYLQMNSLKPEDTAVYYCAATINYPGPTRFVSGNHDYWGQGTQVTVSS” as the sequence, how does the “polyreactivity (PSR sort gate)” value read?
**A.** high polyreactivity

**Q.** With “QVQLVESGGGLVQAGGSLRLSCAASGFIFTQYAMGWYRPAPGKEWELVAAITRSGGRTYYADSVKGRFTISRDNAKNTVYIQMNSLKPEDTAVYYCAVDTVTRTVLVYGDRNDSWGQGTQVTVSS” as the sequence, how does the “polyreactivity (PSR sort gate)” value read?
**A.** high polyreactivity

**Q.** Which “polyreactivity (PSR sort gate)” value does the source give for “QVQLVESGGGLVQAGGSLRLSCAASGFIFTQYAMGWYRQAPGKERELVAGITSSGNTYYADSVKGRFTISRDNAKNTVYLQMNSLKPEDTAVYYCAARSYVRRFDGGYWGQGTQVTVSS” here?
**A.** high polyreactivity

**Q.** Which “polyreactivity (PSR sort gate)” value does the source give for “QVQLVESGGGLVQAGGSLRLSCAASGFIFTRNVMGWYRQAPGKERELVAAISSGGRTYYADSVKGRFTISRDNAKNTVYLQMNRLKPEDTAVYYCSIVSKFTGDYGYWGQGTQVTVSS” here?
**A.** high polyreactivity

**Q.** For “QVQLVESGGGLVQAGGSLRLSCAASGFIFTRYAMGWYRQAPGKERELVATITSGGSTNYADSVKGRFTISRDNAKNTVYLQMNSLKPEDTAVYYCTARWTGSYTSTGFRRRFDYWGQGTQVTVSS”, which “polyreactivity (PSR sort gate)” value is on record?
**A.** high polyreactivity

**Q.** Which “polyreactivity (PSR sort gate)” value does the source give for “QVQLVESGGGLVQAGGSLRLSCAASGFIFTSYAMGWYRQAPGKERELVAAISGSAASTYYADSVKGRFTISRDNAKNTVYLQMNSLKPEDTAVYYCAADYQGYTPSDGRYYWGQGTQVTVSS” here?
**A.** low polyreactivity

**Q.** For “QVQLVESGGGLVQAGGSLRLSCAASGFIFTVNAMGWYRQAPGKERELVAAITQSCGNTSYADSVKGRFTISRDNAKNTVYLQMNSLKPEDTAVYYCNASSDTSRYGVSTYYYWGQGTQVTVSS”, which “polyreactivity (PSR sort gate)” value is on record?
**A.** low polyreactivity

**Q.** For “QVQLVESGGGLVQAGGSLRLSCAASGFIFTVNAMGWYRQAPGKERELVAAITQSGGNTSYADSVKGRFTISRDNAKNTVYLQMNSLKPEDTAVYYCNAEYTWPYHGVRNGWFNFKYEYWGQGTQVTVSS”, which “polyreactivity (PSR sort gate)” value is on record?
**A.** low polyreactivity

**Q.** Which “polyreactivity (PSR sort gate)” value does the source give for “QVQLVESGGGLVQAGGSLRLSCAASGFIFVANAMGWYRQAPGKERELVADINRGSTYYADSVKGRFTISRDNAKNTVYLQMNSLKPEDTAVYYCNRVYTQTYNPWGFEYWGQGTQVTVSS” here?
**A.** high polyreactivity

**Q.** For “QVQLVESGGGLVQAGGSLRLSCAASGFIFVDYAMGWYRQAPGKERELVASIDRSDGSTYYADSVKGRFTISRDNAKKTVYLQMNSLKPEDTAVYYCAADDPLYSISTGDYWGQGTQVTVSL”, which “polyreactivity (PSR sort gate)” value is on record?
**A.** low polyreactivity

**Q.** With “QVQLVESGGGLVQAGGSLRLSCAASGFIFVGNAMGWYRQAHGKERELVAAISRRGSRTFYADSVKARFTISRDNAKNTVYLQMNSLKPEETAVYYCAAEGYYVTPFDYWGQGTQVTVSS” as the sequence, how does the “polyreactivity (PSR sort gate)” value read?
**A.** high polyreactivity

**Q.** Which “polyreactivity (PSR sort gate)” value does the source give for “QVQLVESGGGLVQAGGSLRLSCAASGFIFVGYGMGWYRQAPGKERELVAVITASGGSTYYADSVKGRFTISRDYAKKTVYLQMNSLKPEATAVYYCAARVGRYGYSEYYYWGHGTQVTVSS” here?
**A.** high polyreactivity

**Q.** Which “polyreactivity (PSR sort gate)” value does the source give for “QVQLVESGGGLVQAGGSLRLSCAASGFIFVKNAMGWYRQAPGKERELVAVISTRGGRTYYADSVKGRFTISRDNAKNTVYLQMNSLKPEDTAVYYCAADIWFYTYYEYDYWGQGTQVTVSS” here?
**A.** high polyreactivity

**Q.** Which “polyreactivity (PSR sort gate)” value does the source give for “QVQLVESGGGLVQAGGSLRLSCAASGFIFVKNAMGWYRQAPGKERELVAVISTRGGRTYYADSVKGRFTISRDNAKNTVYLQMNSLKPEDTAVYYCAAGDQYKTRRNGYGYWGQGTQVTVSS” here?
**A.** high polyreactivity

**Q.** For “QVQLVESGGGLVQAGGSLRLSCAASGFIFVKNAMGWYRQAPGKESELVAVISTRGGRTYYADSVKGRFTISRDNAKNTVYLQMNSLKPEDTAVYYCAAGDQYKTRRNGYGYWGQGTQVTVSS”, which “polyreactivity (PSR sort gate)” value is on record?
**A.** high polyreactivity
